From patent US20190359687A1 (Bayer, published 2019)
Values belong to the binder of their own block, whether it stands above or below them.

What was measured:
[1] = molecular target: T1, Rhesus monkey glycophorin A on Rhesus monkey red blood cells (Rhesus monkey, UniProt A0A1D5Q349 20-150); assay: FACS, RBC Rh02
T1 construct: whole, on cells; also called Rhesus RBC; monkey GPA
T1 sequence: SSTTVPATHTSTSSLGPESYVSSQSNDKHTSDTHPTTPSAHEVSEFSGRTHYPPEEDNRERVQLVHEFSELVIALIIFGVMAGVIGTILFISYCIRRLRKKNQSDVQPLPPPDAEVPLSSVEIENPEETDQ

[2] = molecular target: T2, human glycophorin A in the red blood cell membrane (human, UniProt P02724 20-150); assay: FACS, RBC Hu01
T2 construct: whole, on cells; used for intact RBC, isolated RBC membranes and transfected cells; the assay field tells which; also called GPA; hGPA
T2 sequence (looked up): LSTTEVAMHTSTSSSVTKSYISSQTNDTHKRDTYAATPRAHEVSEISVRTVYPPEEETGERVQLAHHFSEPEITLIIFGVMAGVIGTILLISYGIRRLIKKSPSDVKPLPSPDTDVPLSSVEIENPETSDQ
Protocol: (§1) The binding of the humanized variants to intact red blood cells (RBC) from humans (Hu01 to 03; 3 individuals), Rhesus monkey (Rh01 to 03; 3 individuals) and Cynomolgus monkey (Cy01 to 02; 2 individuals) was measured by fluorescence activated cell sorting (FACS).

[3] = molecular target: T2, human glycophorin A in the red blood …; assay: FACS, IgG titrated on human GPA expressing CHO-QMCF1 cells (17d post txn)
dog red blood cells [4] = molecular target: T3, dog red blood cells (dog); assay: FACS, dog RBC
T3 construct: also called dog RBC

[5] = molecular target: T2, human glycophorin A in the red blood …; assay: FACS, hu RBC
Protocol: (§2) Hybridomas were generated from the spleen cells of these mice and these hybriomas were screened first by fluorescence activated cell sorting (FACS) against isolated human and monkey (Cynomolgus monkey and Rhesus monkey) red blood cells (RBC) and then by ELISA against purified human glycophorin A protein (GPA). Isolated RBC were prepared from whole blood from normal human, cynomolgus monkey, and beagle dog, were anticoagulant with sodium heparin (Bioreclamation). 2-3 mL of whole blood was loaded gently on the top of 3 mL Ficoll Plus (Sigma Aldrich) then centrifuged at 500 g for 20 min at room temperature (RT). The RBC pellets were washed 3 times with 10 mL of PBS, and centrifuge 400 g for 10 min at RT. RBC pellets were re-suspended in PBS at the same total volume as the original blood volume to achieve the same RBC cell density as in whole blood and stored at 4° C. Purified human glycophorin A protein was obtained from Sigma Aldrich and coated on ELISA plates at 2 ug/ml. Binding of antibodies to human GPA was detected using appropriate secondary antibodies using methods well known in the art.

[6] = molecular target: T4, purified human glycophorin A protein (Sigma, cat # G5017) (human, UniProt P02724 20-150); assay: ELISA, IgG
T4 construct: mature; also called Sigma hGPA; Sigma GPA
T4 sequence (looked up): T2 sequence (looked up)

[7] = molecular target: T5, Cynomolgus monkey glycophorin A on Cynomolgus monkey red blood cells (Cynomolgus monkey); assay: FACS, Cyno RBC
T5 construct: whole, on cells; also called Cyno RBC; Cyno GPA
Protocol: as §2

[8] = molecular target: T2, human glycophorin A in the red blood …; assay: FACS, RBC Hu03
Protocol: as §1

[9] = molecular target: T5, Cynomolgus monkey glycophorin A on …; assay: FACS, RBC Cy02
Protocol: as §1

[10] = molecular target: T2, human glycophorin A in the red blood …; assay: FACS, RBC Hu02
Protocol: as §1

[11] = molecular target: T6, recombinant human GPA ectodomain (human, UniProt P02724 20-91); assay: SPR, IgG
T6 construct: also called recombinant hGPA ECD; recGPA
T6 sequence: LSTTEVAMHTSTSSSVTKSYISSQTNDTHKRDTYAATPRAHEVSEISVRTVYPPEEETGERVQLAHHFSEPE

[12] = molecular target: T4, purified human glycophorin A protein …; assay: ELISA, hGPA
Protocol: as §2

[13] = molecular target: T1, Rhesus monkey glycophorin A on Rhesus …; assay: FACS, RBC Rh03
Protocol: as §1

[14] = molecular target: T1, Rhesus monkey glycophorin A on Rhesus …; assay: FACS, RBC Rh01
Protocol: as §1

[15] = molecular target: T5, Cynomolgus monkey glycophorin A on …; assay: FACS, RBC Cy01
Protocol: as §1

[16] = molecular target: T7, asialo hGPA (desialylated human GPA) (human, UniProt P02724 20-150, desialylated); assay: ELISA, purified IgG
T7 construct: mature; also called asialo-GPA
T7 sequence (looked up): T2 sequence (looked up)
Protocol: (§3) The “Sigma GPA” is a crude preparation of human GPA extracted from human red blood cells and is therefore representative of the highly glycosylated form of the native protein.
(§4) EC 50 values were determined from a dilution curve of the antibody. Sigma GPA is partially purified GPA extracted from human red blood cells and purchased from Sigma Chemical Company (cat # G5017), asialo hGPA is human GPA that was desialylated and ECD is the recombinantly expressed ectodomain which is the extracellular portion of GPA.

[17] = molecular target: T6, recombinant human GPA ectodomain; assay: ELISA, purified IgG
Protocol: as §3, §4

[18] = molecular target: T4, purified human glycophorin A protein …; assay: ELISA, purified IgG
Protocol: as §3, §4

GP5 peptide = molecular target: T8, GP5 peptide (human, N-terminal biotin); assay: peptides bound to plates (data not shown)
T8 construct: residues 42 to 61 of the human glycophorin A extracellular domain
T8 peptide: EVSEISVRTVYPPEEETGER

GP5-11 = molecular target: T9, GP5-11 (human, biotin at the N-terminus); assay: ELISA, biotin-peptide on streptavidin plate, Fab 1 ug/ml
T9 construct: GP5 with alanine at position 11 (Y11A), already in the entry
T9 peptide: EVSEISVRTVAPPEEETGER

GP5-17 = molecular target: T10, GP5-17 (human, biotin at the N-terminus); assay: as above
T10 construct: GP5 with alanine at position 17 (T17A), already in the entry
T10 peptide: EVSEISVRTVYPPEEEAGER

GP5-10 = molecular target: T11, GP5-10 (human, biotin at the N-terminus); assay: as above
T11 construct: GP5 with alanine at position 10 (V10A), already in the entry
T11 peptide: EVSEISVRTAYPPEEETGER

GP5-16 = molecular target: T12, GP5-16 (human, biotin at the N-terminus); assay: as above
T12 construct: GP5 with alanine at position 16 (E16A), already in the entry
T12 peptide: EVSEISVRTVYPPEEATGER

GP5-19 = molecular target: T13, GP5-19 (human, biotin at the N-terminus); assay: as above
T13 construct: GP5 with alanine at position 19 (E19A), already in the entry
T13 peptide: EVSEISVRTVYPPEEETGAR

GP5-3 = molecular target: T14, GP5-3 (human, biotin at the N-terminus); assay: as above
T14 construct: GP5 with alanine at position 3 (S3A), already in the entry
T14 peptide: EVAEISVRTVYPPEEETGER

GP5-15 = molecular target: T15, GP5-15 (human, biotin at the N-terminus); assay: as above
T15 construct: GP5 with alanine at position 15 (E15A), already in the entry
T15 peptide: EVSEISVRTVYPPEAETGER

GP5-14 = molecular target: T16, GP5-14 (human, biotin at the N-terminus); assay: as above
T16 construct: GP5 with alanine at position 14 (E14A), already in the entry
T16 peptide: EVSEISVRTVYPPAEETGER

GP5-2 = molecular target: T17, GP5-2 (human, biotin at the N-terminus); assay: as above
T17 construct: GP5 with alanine at position 2 (V2A), already in the entry
T17 peptide: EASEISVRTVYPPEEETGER

GP5-4 = molecular target: T18, GP5-4 (human, biotin at the N-terminus); assay: as above
T18 construct: GP5 with alanine at position 4 (E4A), already in the entry
T18 peptide: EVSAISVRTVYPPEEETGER

GP5-18 = molecular target: T19, GP5-18 (human, biotin at the N-terminus); assay: as above
T19 construct: GP5 with alanine at position 18 (G18A), already in the entry
T19 peptide: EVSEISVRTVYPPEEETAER

GP5-7 = molecular target: T20, GP5-7 (human, biotin at the N-terminus); assay: as above
T20 construct: GP5 with alanine at position 7 (V7A), already in the entry
T20 peptide: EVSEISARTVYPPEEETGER

GP5-1 = molecular target: T21, GP5-1 (human, biotin at the N-terminus); assay: as above
T21 construct: GP5 with alanine at position 1 (E1A), already in the entry
T21 peptide: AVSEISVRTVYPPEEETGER

GP5-8 = molecular target: T22, GP5-8 (human, biotin at the N-terminus); assay: as above
T22 construct: GP5 with alanine at position 8 (R8A), already in the entry
T22 peptide: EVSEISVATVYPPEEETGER

GP5-12 = molecular target: T23, GP5-12 (human, biotin at the N-terminus); assay: as above
T23 construct: GP5 with alanine at position 12 (P12A), already in the entry
T23 peptide: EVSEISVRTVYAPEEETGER

GP5-9 = molecular target: T24, GP5-9 (human, biotin at the N-terminus); assay: as above
T24 construct: GP5 with alanine at position 9 (T9A), already in the entry
T24 peptide: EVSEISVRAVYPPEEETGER

GP5-5 = molecular target: T25, GP5-5 (human, biotin at the N-terminus); assay: as above
T25 construct: GP5 with alanine at position 5 (I5A), already in the entry
T25 peptide: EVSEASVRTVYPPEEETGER

GP5-13 = molecular target: T26, GP5-13 (human, biotin at the N-terminus); assay: as above
T26 construct: GP5 with alanine at position 13 (P13A), already in the entry
T26 peptide: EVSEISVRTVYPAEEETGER

GP5-20 = molecular target: T27, GP5-20 (human, biotin at the N-terminus); assay: as above
T27 construct: GP5 with alanine at position 20 (R20A), already in the entry
T27 peptide: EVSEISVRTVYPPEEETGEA

GP5-6 = molecular target: T28, GP5-6 (human, biotin at the N-terminus); assay: as above
T28 construct: GP5 with alanine at position 6 (S6A), already in the entry
T28 peptide: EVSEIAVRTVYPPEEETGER

[19] = molecular target: T2, human glycophorin A in the red blood …; assay: FACS, Human RBC
[20] = molecular target: T5, Cynomolgus monkey glycophorin A on …; assay: FACS, Cyno #3 RBC
dog red blood cells [21] = molecular target: T3, dog red blood cells; assay: FACS, Dog RBC
[22] = molecular target: T2, human glycophorin A in the red blood …; assay: FACS, scFv-Fc
[23] = molecular target: T1, Rhesus monkey glycophorin A on Rhesus …; assay: FACS, Rhesus RBC
[24] = molecular target: T5, Cynomolgus monkey glycophorin A on …; assay: FACS, Cyno #1 RBC
[25] = molecular target: T5, Cynomolgus monkey glycophorin A on …; assay: FACS, Cyno #2 RBC

fluorescence intensity [1]: 3410 | fluorescence intensity [2]: 3520 | EC50 (read off the curve) [3]: ~0.06 µg/mL | FACS signal (dog red blood cells [4]): 1.18 relative flourescence units | FACS signal [5]: 3100 relative flourescence units | EC50 [6]: 326 pM | FACS signal [7]: 292 relative flourescence units | fluorescence intensity [8]: 2680 | fluorescence intensity [9]: 2570 | fluorescence intensity [10]: 2540 | Kd [11]: 2980 pM | koff [11]: 0.00212 s⁻¹ | kon [11]: 711000 M⁻¹ s⁻¹ | t½ [11]: 5.4 min | EC50 [12]: 791 pM | fluorescence intensity [13]: 3180 | fluorescence intensity [14]: 3780 | fluorescence intensity [15]: 2570 | EC50 [16]: 690 pM | EC50 [17]: 590 pM | EC50 [18]: 640 pM | binding result (GP5 peptide): binds
B1: 6C12B8/H8 (antibody, V domains shown)
VH: RVQLQQSGAELARPGASVKMSCKASGYTFTTYTIHWVKQKTGQGLEWIGYINPSSDYTRYNPKFKDKATLTTDKSSSTAYMKLNSLASDDSAVYYCQTGTRDYWGQGTTLTVSS
VL: QIVLTQSPPIMSASPGEKVTMTCSAASSVSYIYWFQQKPGTSPKLWIYSTSTLPSGVPTRFSGSGSGTSYSLTISRMEAEDAATYYCHQRNSFPFTFGSGTKLEIR
notes: mouse IgG1/k from hybridoma; also called 6C12 parental; TPP-3422

binding signal (ELISA) (GP5-11): -1 | binding signal (ELISA) (GP5-17): 6250 | binding signal (ELISA) (GP5-10): 337 | binding signal (ELISA) (GP5-16): 3390 | binding signal (ELISA) (GP5-19): 4580 | binding signal (ELISA) (GP5-3): 6160 | binding signal (ELISA) (GP5-15): 366 | binding signal (ELISA) (GP5-14): 9 | binding signal (ELISA) (GP5-2): 6170 | binding signal (ELISA) (GP5-4): 4840 | binding signal (ELISA) (GP5-18): 6290 | binding signal (ELISA) (GP5-7): 7180 | binding signal (ELISA) (GP5-1): 5310 | binding signal (ELISA) (GP5-8): 7360 | binding signal (ELISA) (GP5-12): 282 | binding signal (ELISA) (GP5-9): 7280 | binding signal (ELISA) (GP5-5): 6780 | binding signal (ELISA) (GP5-13): 2000 | binding signal (ELISA) (GP5-20): 6850 | binding signal (ELISA) (GP5-6): 6370
B2: TPP-5906 Fab (Fab, V domains shown)
VH: EVQLVQSGAEVKKPGASVKVSCKASGYTFTTYTIHWVRQAPGQGLEWMGYINPSSGYTRYNPKFKGRVTMTRDKSTSTAYMELRSLRSDDTAVYYCQTGTRDYWGQGTTVTVSS
VL: DIQLTQSPSFLSASVGDRVTITCRASSSVSYIYWFQQKPGKAPKLLIYATSTLQSGVPSRFSGSGSGTEYTLTISSLQPEDFATYYCHQRNSFPYTFGQGTKLEIKR
notes: also called parental humanized and germlined 6C12 Fab

FACS signal [19]: 1 Flourescent units | FACS signal [20]: 1 Flourescent units | FACS signal (dog red blood cells [21]): 1 Flourescent units | binding result [22]: no binding | FACS signal [23]: 1 Flourescent units | FACS signal [24]: 1 Flourescent units | FACS signal [25]: 1 Flourescent units
B3: 1H5 scFv-Fc (Fc fusion)
scFv: QVQLQQSGAELARPGASVKMSCKASGYTFTSYSIHWIKQRPGQSLEWIGYINPNSDYANYNQKFKDKATLTTDKSSTTAYMQLSSLTTDDSAVYYCQTGTRDYWGQGTTLTVSSGGGGSGGGGSGGGGSDIVMTQSPSSLSVSAGEKVTMSCKSSQSLLNSGNQKNYLAWYQQKPGQPPKLLIYGASTRESGVPDRFTGSGSGTDFTLTISSVQAEDLAVYYCQNDHSYPYTFGGGTKLEIKGGGGAGGGGCKPCICTVPEVSSVFIFPPKPKDVLTITLTPKVTCVVVDISKDDPEVQFSWFVDDVEVHTAQTQPREEQFNSTFRSVSELPIMHQDWLNGKEFKCRVNSAAFPAPIEKTISKTKGRPKAPQVYTIPPPKEQMAKDKVSLTCMITDFFPEDITVEWQWNGQPAENYKNTQPIMDTDGSYFVYSKLNVQKSNWEAGNTFTCSVLHEGLHNHHTEKSLSHSPGK
notes: as m18
